Data published in patent US20080058636A1, “METHODS OF MYOCARDIAL IMAGING” (Epix Pharmaceuticals, Inc., priority 2005, published 2008).
Bridge positions count the residues as written; N and C are the ends. Ends that are not written are not given here.

These binders were tested against rat collagen (acid soluble, type I, rat tail, Upstate 08-115) (rat) (UniProt P02454) (assay: dried collagen assay, 5 uM each).
Sequence of rat collagen (acid soluble, type I, rat tail, Upstate 08-115) (rat) (P02454 152-1207, chain 1 of 2): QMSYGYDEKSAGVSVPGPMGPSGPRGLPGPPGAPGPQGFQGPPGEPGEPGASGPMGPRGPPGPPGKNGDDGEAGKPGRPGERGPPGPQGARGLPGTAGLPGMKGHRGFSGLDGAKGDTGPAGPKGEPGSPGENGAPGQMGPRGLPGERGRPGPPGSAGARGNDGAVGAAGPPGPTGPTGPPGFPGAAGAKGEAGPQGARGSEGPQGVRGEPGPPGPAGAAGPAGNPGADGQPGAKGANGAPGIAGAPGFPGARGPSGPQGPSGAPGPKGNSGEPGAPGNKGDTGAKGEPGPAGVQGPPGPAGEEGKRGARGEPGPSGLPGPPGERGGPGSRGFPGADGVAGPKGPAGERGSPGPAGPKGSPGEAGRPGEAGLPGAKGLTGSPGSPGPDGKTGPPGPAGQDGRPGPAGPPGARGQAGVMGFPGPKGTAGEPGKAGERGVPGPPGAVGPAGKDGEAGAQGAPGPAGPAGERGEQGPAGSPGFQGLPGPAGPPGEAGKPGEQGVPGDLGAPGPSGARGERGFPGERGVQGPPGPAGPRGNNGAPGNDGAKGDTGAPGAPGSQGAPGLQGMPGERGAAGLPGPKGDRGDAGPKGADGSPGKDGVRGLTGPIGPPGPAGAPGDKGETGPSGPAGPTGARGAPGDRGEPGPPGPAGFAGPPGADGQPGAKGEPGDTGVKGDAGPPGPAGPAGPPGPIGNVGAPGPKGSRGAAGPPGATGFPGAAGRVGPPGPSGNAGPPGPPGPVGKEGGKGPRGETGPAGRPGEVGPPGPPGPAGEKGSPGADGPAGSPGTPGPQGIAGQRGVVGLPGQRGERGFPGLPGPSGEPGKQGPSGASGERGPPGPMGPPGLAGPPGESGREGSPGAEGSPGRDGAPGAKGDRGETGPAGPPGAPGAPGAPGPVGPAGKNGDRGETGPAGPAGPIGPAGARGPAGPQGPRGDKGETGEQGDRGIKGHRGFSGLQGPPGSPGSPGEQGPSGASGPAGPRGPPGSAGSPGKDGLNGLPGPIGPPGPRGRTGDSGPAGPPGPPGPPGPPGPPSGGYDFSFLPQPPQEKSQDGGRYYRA
Sequence of rat collagen (acid soluble, type I, rat tail, Upstate 08-115) (rat) (P02466 86-1125, chain 2 of 2, further chain): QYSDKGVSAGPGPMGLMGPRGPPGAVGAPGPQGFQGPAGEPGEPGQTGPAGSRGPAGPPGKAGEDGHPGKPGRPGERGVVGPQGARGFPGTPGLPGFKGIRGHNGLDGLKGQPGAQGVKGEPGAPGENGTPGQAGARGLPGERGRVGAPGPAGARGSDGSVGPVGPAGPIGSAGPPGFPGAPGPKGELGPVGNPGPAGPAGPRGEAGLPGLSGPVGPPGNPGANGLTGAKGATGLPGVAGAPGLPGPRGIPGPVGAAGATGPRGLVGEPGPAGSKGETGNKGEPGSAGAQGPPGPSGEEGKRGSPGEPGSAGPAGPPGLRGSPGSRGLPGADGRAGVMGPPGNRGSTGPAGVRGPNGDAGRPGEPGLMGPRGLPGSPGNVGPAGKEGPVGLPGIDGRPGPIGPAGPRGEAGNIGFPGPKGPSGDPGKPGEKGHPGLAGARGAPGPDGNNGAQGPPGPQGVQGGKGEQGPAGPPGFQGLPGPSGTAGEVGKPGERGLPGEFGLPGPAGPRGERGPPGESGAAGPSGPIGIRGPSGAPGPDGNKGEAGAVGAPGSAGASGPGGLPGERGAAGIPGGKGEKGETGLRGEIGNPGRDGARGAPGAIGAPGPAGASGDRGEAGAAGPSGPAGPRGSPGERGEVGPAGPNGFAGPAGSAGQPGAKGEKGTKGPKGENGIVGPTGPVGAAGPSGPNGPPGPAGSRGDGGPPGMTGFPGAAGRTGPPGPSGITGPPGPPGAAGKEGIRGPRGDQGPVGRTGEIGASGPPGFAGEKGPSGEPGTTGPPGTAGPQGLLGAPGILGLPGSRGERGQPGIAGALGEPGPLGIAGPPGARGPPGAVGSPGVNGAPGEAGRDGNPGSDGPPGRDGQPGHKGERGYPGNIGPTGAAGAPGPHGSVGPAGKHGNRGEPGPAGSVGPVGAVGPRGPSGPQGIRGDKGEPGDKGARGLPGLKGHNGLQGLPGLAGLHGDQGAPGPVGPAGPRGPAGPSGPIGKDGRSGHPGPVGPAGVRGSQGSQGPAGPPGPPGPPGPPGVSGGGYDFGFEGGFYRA

Rat binding [%]	Binder
88	GKWHCYTKFPHHYCKYY [Compound ID 1013]
50	KKAWHCYTYFPHHYCVYG [Compound ID 1016]
61	KKWHCYTYFPHHYCVYG (disulfide 5-14 (inferred); also: coupled to ITC-Gd3 (tris-Gd-DOTAGA isothiocyanate), site not given here) [Compound ID NO. 1014]
18	KKLWHCYTYFPHHYCVYG [Compound ID 1017]
55	KKYWHCYTYFPHHYCVYG [Compound ID 1018]
30	KKGWHCYTYFPHHYCTYG [Compound ID 1015]

Each binder was assayed against human collagen type I (acid soluble, extracted from placenta, Sigma C7774) (human) (UniProt P02452) (assay: dried collagen assay, 5 uM each).
Sequence of human collagen type I (acid soluble, extracted from placenta, Sigma C7774) (human) (P02452 162-1218 limits assumed, chain 1 of 2): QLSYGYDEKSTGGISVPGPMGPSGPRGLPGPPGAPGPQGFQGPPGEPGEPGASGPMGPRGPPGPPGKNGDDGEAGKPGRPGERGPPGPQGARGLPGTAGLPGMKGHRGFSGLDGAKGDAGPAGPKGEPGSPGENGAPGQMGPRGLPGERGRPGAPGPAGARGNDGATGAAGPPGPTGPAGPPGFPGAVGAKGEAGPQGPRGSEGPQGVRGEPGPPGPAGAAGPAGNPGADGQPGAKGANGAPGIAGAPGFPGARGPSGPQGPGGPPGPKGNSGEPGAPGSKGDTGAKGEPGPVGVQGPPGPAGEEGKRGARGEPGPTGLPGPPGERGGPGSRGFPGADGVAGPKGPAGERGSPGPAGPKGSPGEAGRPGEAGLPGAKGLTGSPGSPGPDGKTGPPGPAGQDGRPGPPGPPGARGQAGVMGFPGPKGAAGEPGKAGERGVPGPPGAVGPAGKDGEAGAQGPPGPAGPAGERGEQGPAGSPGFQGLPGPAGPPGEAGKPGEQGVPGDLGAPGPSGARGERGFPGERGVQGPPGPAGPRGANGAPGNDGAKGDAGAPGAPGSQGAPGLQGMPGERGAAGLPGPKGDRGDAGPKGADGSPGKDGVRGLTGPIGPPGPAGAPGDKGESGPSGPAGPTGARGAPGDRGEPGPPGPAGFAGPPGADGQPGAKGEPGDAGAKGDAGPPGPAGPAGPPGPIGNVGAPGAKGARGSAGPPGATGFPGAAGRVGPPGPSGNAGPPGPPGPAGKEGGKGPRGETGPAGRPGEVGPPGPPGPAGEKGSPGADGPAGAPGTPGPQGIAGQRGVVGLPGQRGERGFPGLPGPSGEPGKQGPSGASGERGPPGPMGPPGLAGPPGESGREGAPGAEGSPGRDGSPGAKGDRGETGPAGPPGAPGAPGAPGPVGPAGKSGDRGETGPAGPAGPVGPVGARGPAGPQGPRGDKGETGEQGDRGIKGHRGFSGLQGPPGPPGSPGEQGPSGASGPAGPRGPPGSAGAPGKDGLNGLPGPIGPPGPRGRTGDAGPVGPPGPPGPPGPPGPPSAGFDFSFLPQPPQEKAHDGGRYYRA
Sequence of human collagen type I (acid soluble, extracted from placenta, Sigma C7774) (human) (P08123 80-1119 limits assumed, chain 2 of 2, further chain): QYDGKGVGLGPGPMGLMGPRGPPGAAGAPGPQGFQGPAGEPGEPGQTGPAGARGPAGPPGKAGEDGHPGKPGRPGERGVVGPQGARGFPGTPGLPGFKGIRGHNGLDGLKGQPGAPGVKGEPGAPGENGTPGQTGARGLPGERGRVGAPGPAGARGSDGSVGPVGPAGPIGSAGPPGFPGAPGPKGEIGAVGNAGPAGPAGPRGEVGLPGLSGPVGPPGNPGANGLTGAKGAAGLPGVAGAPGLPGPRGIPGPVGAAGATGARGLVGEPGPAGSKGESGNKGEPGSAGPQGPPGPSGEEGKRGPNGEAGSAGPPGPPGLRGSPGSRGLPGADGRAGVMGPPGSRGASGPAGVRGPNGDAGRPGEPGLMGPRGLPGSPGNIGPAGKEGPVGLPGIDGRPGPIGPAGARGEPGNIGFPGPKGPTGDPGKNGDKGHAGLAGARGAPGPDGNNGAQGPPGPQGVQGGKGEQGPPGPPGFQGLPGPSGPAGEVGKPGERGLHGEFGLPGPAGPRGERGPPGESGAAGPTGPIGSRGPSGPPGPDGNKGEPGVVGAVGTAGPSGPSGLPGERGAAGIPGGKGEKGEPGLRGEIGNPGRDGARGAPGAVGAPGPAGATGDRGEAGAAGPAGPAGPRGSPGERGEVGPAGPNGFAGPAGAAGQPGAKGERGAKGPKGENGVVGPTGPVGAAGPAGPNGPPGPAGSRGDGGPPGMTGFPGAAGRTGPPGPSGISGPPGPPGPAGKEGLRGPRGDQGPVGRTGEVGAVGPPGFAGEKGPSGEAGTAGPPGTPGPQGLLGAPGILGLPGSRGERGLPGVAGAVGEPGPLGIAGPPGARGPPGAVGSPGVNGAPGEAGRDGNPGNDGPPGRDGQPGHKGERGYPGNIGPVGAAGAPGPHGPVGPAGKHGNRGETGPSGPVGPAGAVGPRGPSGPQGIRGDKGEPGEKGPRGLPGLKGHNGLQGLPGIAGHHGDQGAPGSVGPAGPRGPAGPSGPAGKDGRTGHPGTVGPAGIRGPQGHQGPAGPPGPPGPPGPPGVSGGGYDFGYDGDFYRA

Human binding [%]	Binder
81	GKWHCYTKFPHHYCKYY [Compound ID 1013]
48	KKAWHCYTYFPHHYCVYG [Compound ID 1016]
72	KKWHCYTYFPHHYCVYG (disulfide 5-14 (inferred); also: coupled to ITC-Gd3 (tris-Gd-DOTAGA isothiocyanate), site not given here) [Compound ID NO. 1014]
25	KKLWHCYTYFPHHYCVYG [Compound ID 1017]
53	KKYWHCYTYFPHHYCVYG [Compound ID 1018]
29	KKGWHCYTYFPHHYCTYG [Compound ID 1015]

The binders below were run against human collagen type I (acid soluble, extracted from placenta, Sigma C7774) (human) (UniProt P02452) (assay: dried collagen assay).

Dried Human Collagen Binding [%]	% Collagen Binding [%]	Binder
8		FWTCELDFRQSWYCYDK (disulfide 4-14 (inferred); not fully specified) [SEQ ID NO: 79]
45		TWMCVDPPLWRCWVQ (disulfide 4-12; also: C-terminus probably amidated (Rink amide resin)) [SEQ ID NO: 4]
9		GWQCFGASDWHCTWV (disulfide 4-12; not fully specified) [SEQ ID NO: 8]
20		TWQCSGNQKWSCEWF (disulfide 4-12; also: C-terminus probably amidated (Rink amide resin)) [SEQ ID NO: 6]
	5	YHACYQAGCYIY (disulfide 4-9; not fully specified (C-terminus)) [SEQ ID NO: 108]
8		YWVCGGDHQSWHCSHP (disulfide 4-13; also: C-terminus probably amidated (Rink amide resin)) [SEQ ID NO: 35]
3		LWTCSMDRNYDWVCGEK (disulfide 4-14; not fully specified (C-terminus)) [SEQ ID NO: 82]
8		NWYCSQALDNWSCKLR (disulfide 4-13; also: C-terminus likely amidated (Rink amide resin)) [SEQ ID NO: 63]
7		KWECVHTKGEWYCETK (disulfide 4-13 (inferred); also: C-terminus likely amidated (Rink amide resin)) [SEQ ID NO: 65]
5		SWHCFLENHHWMCSDH (disulfide 4-13 (inferred); also: C-terminus likely amidated (Rink amide resin)) [SEQ ID NO: 68]
6		GWSCHGDAADWPCQWS (disulfide 4-13; also: C-terminus probably amidated (Rink amide resin)) [SEQ ID NO: 38]
6		RWSCVLDADGWVCSDN (disulfide 4-13 (inferred); also: C-terminus likely amidated (Rink amide resin)) [SEQ ID NO: 66]
6		GWQCSGDASVWNCDWI (disulfide 4-13; also: C-terminus probably amidated (Rink amide resin)) [SEQ ID NO: 39]
3		AKKCWYNDGGHLRCRTL (disulfide 4-14; not fully specified (C-terminus)) [SEQ ID NO: 99]
5		GWSCHSMDMQWHCDFS (disulfide 4-13 (inferred); also: C-terminus likely amidated (Rink amide resin)) [SEQ ID NO: 67]
8		TWICSHNDKGWTCGDQ (disulfide 4-13 (inferred); also: C-terminus likely amidated (Rink amide resin)) [SEQ ID NO: 64]
8		TWACDLDEYGGWQCYTG (disulfide 4-14 (inferred); also: C-terminal amide likely (Rink amide resin)) [SEQ ID NO: 78]
7		SWSCGGDHNAWKCQYS (disulfide 4-13; also: C-terminus probably amidated (Rink amide resin)) [SEQ ID NO: 36]
24		NWKCWGVVKWECIWA (disulfide 4-12; also: C-terminus presumably amidated (Rink amide resin)) [SEQ ID NO: 5]
3		QWFCEMDEYGKWNCGMM (disulfide 4-14; not fully specified (C-terminus)) [SEQ ID NO: 81]
7		TWNCYGVTEWHCYMI (disulfide 4-12; not fully specified (C-terminus)) [SEQ ID NO: 9]
2		PWWCHEMPSMCFGF (disulfide 4-11; also: C-terminus probably amidated (Rink amide resin)) [SEQ ID NO: 3]
7		LWNCHGTDANWKCVLN (disulfide 4-13; also: C-terminus probably amidated (Rink amide resin)) [SEQ ID NO: 37]
1		VWACRGGTTNWHCDL (disulfide 4-13; also: C-terminus probably amidated (Rink amide resin)) [SEQ ID NO: 41]
56		YHACYQAGCWIW (disulfide 4-9; not fully specified (C-terminus)) [SEQ ID NO: 1]
